In US20250297026A1 (PETMEDIX, published 2025):

T1: canine CD20 (UniProt Q3C2E2 1-297)
T1 chain: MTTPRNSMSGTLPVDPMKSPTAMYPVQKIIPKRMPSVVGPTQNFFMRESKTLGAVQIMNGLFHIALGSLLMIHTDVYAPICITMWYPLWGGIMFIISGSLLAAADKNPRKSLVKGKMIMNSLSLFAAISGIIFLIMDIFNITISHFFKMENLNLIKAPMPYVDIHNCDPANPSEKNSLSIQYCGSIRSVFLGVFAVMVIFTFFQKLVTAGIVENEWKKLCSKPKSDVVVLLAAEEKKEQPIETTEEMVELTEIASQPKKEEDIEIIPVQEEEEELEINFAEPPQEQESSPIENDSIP

T2: canine CD20 (canine, UniProt Q3C2E2 1-297)
T2 chain: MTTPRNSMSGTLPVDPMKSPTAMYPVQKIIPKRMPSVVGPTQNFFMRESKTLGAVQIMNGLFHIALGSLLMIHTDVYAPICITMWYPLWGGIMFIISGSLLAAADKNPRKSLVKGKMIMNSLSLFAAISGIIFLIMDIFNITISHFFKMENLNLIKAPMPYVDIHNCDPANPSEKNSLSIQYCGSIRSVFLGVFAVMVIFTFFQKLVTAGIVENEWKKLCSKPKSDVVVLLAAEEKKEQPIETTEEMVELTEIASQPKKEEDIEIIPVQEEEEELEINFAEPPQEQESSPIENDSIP

B1: PMX115 mAb (antibody, V domains shown)
VH: EMQLVESGGALVKPGGSLRLSCVASGFTFRRYHMSWVRQAPGQGLQWVAYIDSDGSPTSYGDSVKGRFTISRDNAKNTLFLQMNSLRVDDTAVYYCTTLDYWGRGTLVTVSS
VL: SYVLTQVPSKSVTLKQPAHITCGGDNIGGKSVHWYQQKLGQAPLLIIYYDTRRPTGIPERFSGANSGNTATLTISRALAEDEADYYCQVWDSSGNVFGGGTHLTVI
B2: PMX003 mAb (antibody, V domains shown)
VH: EVQLVESGGDLVKPGGSLRLSCVASGITFSRYHMSWVRQAPGKGLQWVAYINSGGSSTSYPDAVKGRFTISRDNAKNTLYLQMDSLRAEDTALYYCTTFDYWGQGTLVTVSS
VL: SYVLTQLPSKNVTLKQPAHITCGGDNIGSKSVHWYQQKLGQAPVLIIYYDSRRPTGIPERFSGANSGNTATLTISGALAEDEADYYCQVWDSSANVFGGGTHLTVLG
B3: PMX070 (antibody, V domains shown)
VH: EMQLVESGGDLVKPGGSLRLSCVASGFTFSRYHMSWVRQAPGKGLQWVAYINSGGSPTNYADAVKGRFTISRDNAKNTLYLQMNSLRAEDTAVYYCTTYDQWGQGTLVTVSS
VL: SYVLTQLPSKSVTLKQPAHITCGGDNIGSKSVHWYQQKLGQAPVLIIYYDSSRPTGIPERFSGANSGNTATLTISGALAEDEADYYCQVWDTSANVFGGGTHLTVL

How the values were obtained:
[1] = molecular target: T1, canine CD20; test: flow cytometry, cCD20-expressing MDCK II cells; apparent Kd (EC50 of binding)
[2] = molecular target: T2, canine CD20; test: cell-based or functional assay

Row | Binder | Kd [1] [nM] | ADCC EC50 [2] [nM] | ADCC Maximum killing (%) [2] [%] | CDC EC50 [2] [nM] | CDC Maximum killing (%) [2] [%]
1 | B1 | 0.8 | – | – | – | –
2 | B2 | 1.7 | 0.89 | 34 | 25 | 90.4
3 | B3 | 1.1 | 0.29 | 51 | 11.2 | 97.1
